B1: UBE2R2 (parent)
chain: DPQSGELPSERWNPTQNVRTILLS
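Also: lentivirally expressed fusions sorted by FACS into six bins by GFP to DsRed ratio, PSI derived from sequencing read proportions per bin multiplied by bin number.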

The variants in the series derive from B1. Nature of the series: protein stability index of a GFP-peptide fusion (GPS, HEK-293T) (PSI 1-6); higher = more stable. Conditions: c terminus: a fixed tail appended.
As for DPQSGELPSERWNPTQNVRTVLLS [I21V], the protein stability index is 3.9.

On to DPQSGELPSERWNPTQNVRTKLLS [I21K], for which the protein stability index turned out to be 4.61.

With DPQSGELPSERWNPTQNVRTQLLS [I21Q], the protein stability index came to 4.18.

Consider DPQSGELPSERWNPTQNVRTPLLS [I21P], for which the protein stability index stood at 4.3.

As to DPQSGELPSERWNPTQNVRTFLLS [I21F], the protein stability index was 3.96.

On to DPQSGELPSERWNPTQNVRTTLLS [I21T], for which the protein stability index is 4.26.

On to DPQSGELPSERWNPTQNVRTALLS [I21A], for which the protein stability index turned out to be 5.11.

DPQSGELPSERWNPTQNVRTWLLS [I21W]: the protein stability index was determined as 3.55.

Turning to DPQSGELPSERWNPTQNVRTGLLS [I21G], the protein stability index came out at 4.81.

Regarding DPQSGELPSERWNPTQNVRTHLLS [I21H], the protein stability index is 4.49.

DPQSGELPSERWNPTQNVRTSLLS [I21S]: the protein stability index was determined as 4.33.

As to DPQSGELPSERWNPTQNVRTMLLS [I21M], the protein stability index is 4.12.

As for DPQSGELPSERWNPTQNVRTLLLS [I21L], the protein stability index was determined as 3.96.

For DPQSGELPSERWNPTQNVRTDLLS [I21D], the protein stability index is 4.6.

In the case of DPQSGELPSERWNPTQNVRTRLLS [I21R], the protein stability index worked out at 4.52.

For DPQSGELPSERWNPTQNVRTYLLS [I21Y], the protein stability index came out at 3.14.

In the case of DPQSGELPSERWNPTQNVRTELLS [I21E], the protein stability index turned out to be 4.53.

Regarding DPQSGELPSERWNPTQNVRTNLLS [I21N], the protein stability index worked out at 4.6.

Take DPQSGELPSERWNPTQNVRTCLLS [I21C]: the protein stability index was 4.33.

For DPQSGELPSERWYPTQNVRTILLS [N13Y], the protein stability index was 3.16.

Turning to DPQSGELPSERWLPTQNVRTILLS [N13L], the protein stability index is 3.47.

As to DPQSGELPSERWMPTQNVRTILLS [N13M], the protein stability index is 3.79.

Regarding DPQSGELPSERWRPTQNVRTILLS [N13R], the protein stability index worked out at 3.31.

Take DPQSGELPSERWPPTQNVRTILLS [N13P]: the protein stability index was determined as 3.71.

On to DPQSGELPSERWWPTQNVRTILLS [N13W], for which the protein stability index came to 2.87.

Consider DPQSGELPSERWSPTQNVRTILLS [N13S], for which the protein stability index is 4.

In the case of DPQSGELPSERWTPTQNVRTILLS [N13T], the protein stability index turned out to be 3.76.

Consider DPQSGELPSERWAPTQNVRTILLS [N13A], for which the protein stability index amounted to 3.78.

DPQSGELPSERWCPTQNVRTILLS [N13C]: the protein stability index was determined as 2.78.

As for DPQSGELPSERWHPTQNVRTILLS [N13H], the protein stability index came out at 3.3.

Take DPQSGELPSERWVPTQNVRTILLS [N13V]: the protein stability index stood at 3.17.

As for DPQSGELPSERWIPTQNVRTILLS [N13I], the protein stability index worked out at 2.87.

Regarding DPQSGELPSERWDPTQNVRTILLS [N13D], the protein stability index was determined as 4.22.

Regarding DPQSGELPSERWQPTQNVRTILLS [N13Q], the protein stability index stood at 3.87.

As for DPQSGELPSERWKPTQNVRTILLS [N13K], the protein stability index was found to be 3.88.

Consider DPQSGELPSERWGPTQNVRTILLS [N13G], for which the protein stability index was found to be 2.46.

As for DPQSGELPSERWFPTQNVRTILLS [N13F], the protein stability index worked out at 2.66.

For the variant DPQSGELPSERWEPTQNVRTILLS [N13E], the protein stability index was determined as 3.83.

Take DPQSGELPSERWNPTQNVRTIKLS [L22K]: the protein stability index came out at 4.41.

Take DPQSGELPSERWNPTQNVRTICLS [L22C]: the protein stability index was 4.12.

DPQSGELPSERWNPTQNVRTISLS [L22S]: the protein stability index stood at 3.88.

For the variant DPQSGELPSERWNPTQNVRTIILS [L22I], the protein stability index turned out to be 3.05.

As to DPQSGELPSERWNPTQNVRTIGLS [L22G], the protein stability index was found to be 4.5.

Consider DPQSGELPSERWNPTQNVRTINLS [L22N], for which the protein stability index turned out to be 4.47.

Regarding DPQSGELPSERWNPTQNVRTIPLS [L22P], the protein stability index worked out at 4.7.

With DPQSGELPSERWNPTQNVRTIVLS [L22V], the protein stability index was found to be 3.42.

Turning to DPQSGELPSERWNPTQNVRTIQLS [L22Q], the protein stability index turned out to be 4.25.

With DPQSGELPSERWNPTQNVRTIHLS [L22H], the protein stability index came to 4.2.

As to DPQSGELPSERWNPTQNVRTIDLS [L22D], the protein stability index came out at 4.43.

In the case of DPQSGELPSERWNPTQNVRTIMLS [L22M], the protein stability index was 4.11.

On to DPQSGELPSERWNPTQNVRTITLS [L22T], for which the protein stability index came out at 4.1.

Consider DPQSGELPSERWNPTQNVRTIRLS [L22R], for which the protein stability index came out at 4.29.

Consider DPQSGELPSERWNPTQNVRTIALS [L22A], for which the protein stability index worked out at 4.31.

As for DPQSGELPSERWNPTQNVRTIELS [L22E], the protein stability index came out at 5.13.

DPQSGELPSERWNPTQNVRTIFLS [L22F]: the protein stability index was found to be 3.54.

Take DPQSGELPSERWNPTQNVRTIWLS [L22W]: the protein stability index came out at 2.44.

On to DPQSGELPSERWNPTVNVRTILLS [Q16V], for which the protein stability index turned out to be 3.11.

With DPQSGELPSERWNPTHNVRTILLS [Q16H], the protein stability index was 3.44.

For DPQSGELPSERWNPTINVRTILLS [Q16I], the protein stability index was found to be 2.83.

Regarding DPQSGELPSERWNPTTNVRTILLS [Q16T], the protein stability index was determined as 4.14.

DPQSGELPSERWNPTSNVRTILLS [Q16S]: the protein stability index amounted to 3.58.

Take DPQSGELPSERWNPTMNVRTILLS [Q16M]: the protein stability index was found to be 3.46.

Turning to DPQSGELPSERWNPTFNVRTILLS [Q16F], the protein stability index amounted to 2.5.

In the case of DPQSGELPSERWNPTKNVRTILLS [Q16K], the protein stability index is 3.51.

In the case of DPQSGELPSERWNPTLNVRTILLS [Q16L], the protein stability index came out at 2.88.

As to DPQSGELPSERWNPTANVRTILLS [Q16A], the protein stability index came out at 3.67.

As for DPQSGELPSERWNPTYNVRTILLS [Q16Y], the protein stability index was 2.54.

In the case of DPQSGELPSERWNPTRNVRTILLS [Q16R], the protein stability index turned out to be 3.81.

With DPQSGELPSERWNPTPNVRTILLS [Q16P], the protein stability index is 3.24.

In the case of DPQSGELPSERWNPTDNVRTILLS [Q16D], the protein stability index came out at 3.97.

As to DPQSGELPSERWNPTWNVRTILLS [Q16W], the protein stability index was 2.54.

DPQSGELPSERWNPTNNVRTILLS [Q16N]: the protein stability index came to 3.48.

Regarding DPQSGELPSERWNPTENVRTILLS [Q16E], the protein stability index is 2.95.

DPQSGELPSERWNPTCNVRTILLS [Q16C]: the protein stability index is 3.04.

As to DPQSGELPSERWNPTGNVRTILLS [Q16G], the protein stability index came out at 3.53.

Take DPQSGELPSERWNPTQNNRTILLS [V18N]: the protein stability index came out at 4.

Consider DPQSGELPSERWNPTQNYRTILLS [V18Y], for which the protein stability index came out at 3.34.

Take DPQSGELPSERWNPTQNMRTILLS [V18M]: the protein stability index came out at 3.3.

For DPQSGELPSERWNPTQNARTILLS [V18A], the protein stability index was 4.38.

As to DPQSGELPSERWNPTQNWRTILLS [V18W], the protein stability index turned out to be 3.24.

For the variant DPQSGELPSERWNPTQNHRTILLS [V18H], the protein stability index came to 4.

Take DPQSGELPSERWNPTQNERTILLS [V18E]: the protein stability index was determined as 4.06.

On to DPQSGELPSERWNPTQNGRTILLS [V18G], for which the protein stability index was 4.

In the case of DPQSGELPSERWNPTQNLRTILLS [V18L], the protein stability index was 3.27.

For the variant DPQSGELPSERWNPTQNDRTILLS [V18D], the protein stability index was 3.83.

As to DPQSGELPSERWNPTQNFRTILLS [V18F], the protein stability index came out at 3.61.

As to DPQSGELPSERWNPTQNCRTILLS [V18C], the protein stability index is 3.9.

In the case of DPQSGELPSERWNPTQNQRTILLS [V18Q], the protein stability index is 4.2.

With DPQSGELPSERWNPTQNRRTILLS [V18R], the protein stability index came out at 4.14.

DPQSGELPSERWNPTQNIRTILLS [V18I]: the protein stability index turned out to be 3.97.

With DPQSGELPSERWNPTQNTRTILLS [V18T], the protein stability index turned out to be 4.04.

For DPQSGELPSERWNPTQNKRTILLS [V18K], the protein stability index amounted to 3.78.

As for DPQSGELPSERWNPTQNSRTILLS [V18S], the protein stability index was found to be 3.92.

As for DPQSGELPSERWNPTQNPRTILLS [V18P], the protein stability index is 3.63.

For the origin of these results see the supplement of paper PMC10567573.
